# Results taken from the nanobody polyreactivity screen of Harvey et al. (2022).
# Experiment: yeast display, Sf9 membrane polyspecificity reagent, FACS + sequencing; frameworks hold sequencing errors
# How it was run: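 Genes from sorted yeast were amplified by colony PCR, read by MiSeq 2 × 250 sequencing and filtered on CDR length. These cells carried a synthetic nanobody library in Saccharomyces cerevisiae BJ5465 and were sorted by FACS into low and high (top ~1%) gates on anti-HA and streptavidin fluorescence. Polyreactivity is labelled according to the gate of origin.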
row,Sequence,polyreactivity (PSR sort gate)
1,QVQLVESGGGLVQAGGSLRLSCAASGSTLSWYAMGWYRQAPGKERELVAAITRGGSTYYADSVKGRFTISRDNAKNTVYLQMNSLKPEDTAVYYCNAGRDGSRFQYRYDYWGQGTQVTVSS,low polyreactivity
2,QVQLVESGGGLVQAGGSLRLSCAASGSTLTRHAMGWYRQAPGKERELVAAITSGGRTKYADSVKGRFTISRDNAKYTVYLHMNSLKPEDTAVYYCAKGGPPGQRGYDYWGQGTQVTVSS,high polyreactivity
3,QVQLVESGGGLVQAGGSLRLSCAASGSTLVDNGMGWYRHAPGKERELVASISSDGSTNYADSVKGRFTISRDNAKYTVYLQMNSLKTEDPAVYYCAADEGTGQASLSSNLSDYWGQGTQVTVSS,low polyreactivity
4,QVQLVESGGGLVQAGGSLRLSCAASGSTLVGYDMGWYRQAHGKEMELVADITSTGSTNYADSVKGSFTISRDNAKNTVYLQMNSLKPEDTAVYYCAADLYFYIYSYNYWGQGTQVTVSS,low polyreactivity
5,QVQLVESGGGLVQAGGSLRLSCAASGSTLVIYAMGWSRQAPGKEREFVAAIRWSTGRTYYADSVKGRFTISRDNAKNTVYLQMNSLKPEDTAVYYCNASYWAPNSLPDGFRYDSWGQGTQVTVSS,high polyreactivity
6,QVQLVESGGGLVQAGGSLRLSCAASGSTLVKYAMGWYRQAPGKERELVARITLNGGRTYYADSVKGRFTISRDNAKNTVYLQMNSLKPEDTAVYYCAKSLPHSTSRDYWGQGTQVTVSS,low polyreactivity
7,QVQLVESGGGLVQAGGSLRLSCAASGSTLVLNAMGWYRQAPGKERELVAAITISGDTTYYADSVKGRFTISRDNAKNTVYLQMNSLKPEDTAVYYCAAVVSTVDGMEYWGQGTQVTVSS,low polyreactivity
8,QVQLVESGGGLVQAGGSLRLSCAASGSTLVTNAMGWYRQAPGKERELVAAITFSGGTTYYADSVKGRFTISRDNAKNTFYLQMNSLKPEDTAVYYCAAEIWLEYVGYDYWGQGTQVTVSS,high polyreactivity
9,QVQLVESGGGLVQAGGSLRLSCAASGSTLVTYAMGWYRQAPGKERELVAAISWRGGSTYYADSVKGRFTISRDNAKNTVYLQMNSLKPEDTAVYYCIKLRAYKESETYYYWGQGTQVTVSS,low polyreactivity
10,QVQLVESGGGLVQAGGSLRLSCAASGSTLVYNDMGWYRQAPGKEREFVAAIRSNDGSTYYADSVKGRFTISRDNAKNTVYLQMNSLKPEDTAVYYCATTQAYRGENYNYWGQGTQVTVSS,low polyreactivity
11,QVQLVESGGGLVQAGGSLRLSCAASGSTLWDYAMGWYRQAPGKERELVAAITQDGGSTYYADSVKGRFTISRDNAKNTVYLQMNSLKPEDTAVYYCAAEYWYDGGGYWGQGTQVTVSS,low polyreactivity
12,QVQLVESGGGLVQAGGSLRLSCAASGSTLYDYTMGWYRQAPGKERELVAAIRVSGARTFYADSVKGRFTISRDNAKNTVYLQMNSLKPEDTAVYYCAAEFGSFVSPYNYYYWGQGTQVTVSS,low polyreactivity
13,QVQLVESGGGLVQAGGSLRLSCAASGSTLYTYAMGWYRQAPGKERELVADISTGGSTYYADSVKGRFTISRDNAKNTVYLQMNSLKPEDTAVYYCAAESWFDPVDYWGQGTQVTVSS,low polyreactivity
14,QVQLVESGGGLVQAGGSLRLSCAASGSTLYTYAMGWYRQAPGKERELVATISWSGSSTYYADSVKGRFTISRDNAKNTVYLQMNSLKPEDTAVYYCNKVPGKSGVPPDYDYWGQGTQVTVSS,high polyreactivity
15,QVQLVESGGGLVQAGGSLRLSCAASGSTLYYYAMGWSRQAPGKERELVAAISWSGGITYYADSVKGRFTISRDNAKNTVYLQMNSLKPEDTAVYYCAADKYQGYTFYQGYPGGGGYWGQGTQVTVSS,low polyreactivity
16,QVQLVESGGGLVQAGGSLRLSCAASGSTNVVNAMGRYRQPPGKERELVAAITYSGGSTYYADSVKGRFTISRDNAKNTVYLQQNSLKPEDTAVYYCNTTLRDSRQYVDRAPYTRYDYWGQGTQVTVSS,low polyreactivity
17,QVQLVESGGGLVQAGGSLRLSCAASGSTRYNAKGWYRQAPGNERELVASIRGNAGSTYYADSVKGRFTISRDNAKNTVYLQMNSLKPEDTAVYYCNARYWYRYGGYKPVGGYYWGQGTQVTVSS,high polyreactivity
